Reference: patent publication US20220177580A1 (Amgen, published 2022)
Values belong to the binder of their own block, whether it stands above or below them.

Key:
[1] = target: T1, huFcγRIIa-131H (His-tagged, soluble, captured for SPR) (human, UniProt P12318 34-217, limits assumed); test: SPR, His-tagged FcγR captured by anti-His antibody, antibody injected; unenriched panitumumab; apparent KD
T1 construct: His-tagged human FcγR expressed in CHO cells, purified in house and captured by an anti-His antibody on a CM5 chip; also called FcγRIIa-H131; not shown: His tag
T1 sequence (looked up): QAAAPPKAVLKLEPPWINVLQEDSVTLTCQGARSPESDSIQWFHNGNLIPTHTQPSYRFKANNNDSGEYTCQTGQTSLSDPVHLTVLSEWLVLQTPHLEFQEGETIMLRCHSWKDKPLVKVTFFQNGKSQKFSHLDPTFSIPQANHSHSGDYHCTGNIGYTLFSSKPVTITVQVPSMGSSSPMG
Procedure: (§1) Surface plasmon resonance experiments were performed using the SPR T-200 instrument. His-tagged human FcγRs were expressed in CHO cells and purified in house mouse anti-his capture antibody was immobilized at approximately 5000 RU on a Series S Sensor Chip CM5 (GE Healthcare) using Instrument Buffer (0.005% P20 in PBS). FcγRs were diluted to 3.3˜10 nM in running buffer (0.005% P20, 0.1 mg/mL BSA in PBS) and injected at 10 μL/min for 1.5 min for the capture step. Panitumumab samples were diluted in running buffer (PBS+0.005% P20+0.1 mg/mL BSA) over a range of concentrations from 0.4 nM-20000 nM and injected over the captured FcγR with association and dissociation times of 3 minutes at 50 μL/min. The chip surface was regenerated by injecting 10 mM glycine, pH 1.7 at 30 μL/min for 30 s.

[2] = target: T2, human FcγRI (His-tagged, soluble, captured for SPR) (human, UniProt P12314 16-292, limits assumed); test: SPR, His-tagged FcγR captured by anti-His antibody, antibody injected
T2 construct: His-tagged human FcγR expressed in CHO cells, purified in house and captured by an anti-His antibody on a CM5 chip; also called CD64; not shown: His tag
Procedure: as §1

[3] = target: T1, huFcγRIIa-131H (His-tagged, soluble, …); test: SPR equilibrium binding, His-tagged FcγR captured by anti-His antibody; fucose enriched; equilibrium binding
Procedure: as §1
(§2) To try to assess the affinity of panitumumab and the various enriched glycan species for FcγRs, we measured the biding of panitumumab samples to all three human Fcγ Receptors by surface plasmon resonance (SPR). […] The binding was further assessed for the fucose and afucose enriched panitumumab samples by equilibrium binding (FIGS. 11A-11B). […]

[4] = target: T1, huFcγRIIa-131H (His-tagged, soluble, …); test: SPR equilibrium binding, His-tagged FcγR captured by anti-His antibody; afucose enriched; equilibrium binding
Procedure: as §1, §2

T2 sequence (P12314 16-292 limits assumed): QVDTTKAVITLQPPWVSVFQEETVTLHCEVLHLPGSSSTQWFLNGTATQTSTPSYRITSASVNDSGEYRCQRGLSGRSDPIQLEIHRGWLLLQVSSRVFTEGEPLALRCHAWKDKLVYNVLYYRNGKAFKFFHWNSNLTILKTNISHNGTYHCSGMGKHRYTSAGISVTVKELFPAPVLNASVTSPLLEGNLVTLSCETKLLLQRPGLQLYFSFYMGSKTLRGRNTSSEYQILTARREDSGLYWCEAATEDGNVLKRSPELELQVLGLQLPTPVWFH

Kd [1]: ~20 µM
binding result [2]: no binding (tested: 10 µM)
B1: Panitumumab (antibody, human IgG2, kappa)
heavy: QVQLQESGPGLVKPSETLSLTCTVSGGSVSSGDYYWTWIRQSPGKGLEWIGHIYYSGNTNYNPSLKSRLTISIDTSKTQFSLKLSSVTAADTAIYYCVRDRVTGAFDIWGQGTMVTVSSASTKGPSVFPLAPCSRSTSESTAALGCLVKDYFPEPVTVSWNSGALTSGVHTFPAVLQSSGLYSLSSVVTVPSSNFGTQTYTCNVDHKPSNTKVDKTVERKCCVECPPCPAPPVAGPSVFLFPPKPKDTLMISRTPEVTCVVVDVSHEDPEVQFNWYVDGVEVHNAKTKPREEQFNSTFRVVSVLTVVHQDWLNGKEYKCKVSNKGLPAPIEKTISKTKGQPREPQVYTLPPSREEMTKNQVSLTCLVKGFYPSDIAVEWESNGQPENNYKTTPPMLDSDGSFFLYSKLTVDKSRWQQGNVFSCSVMHEALHNHYTQKSLSLSPGK
light: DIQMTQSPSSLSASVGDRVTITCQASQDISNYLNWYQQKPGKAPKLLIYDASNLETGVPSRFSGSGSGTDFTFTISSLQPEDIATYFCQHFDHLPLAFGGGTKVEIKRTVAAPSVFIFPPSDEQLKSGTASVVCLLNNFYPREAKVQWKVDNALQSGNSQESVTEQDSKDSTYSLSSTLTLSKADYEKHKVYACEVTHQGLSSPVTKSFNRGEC
modifications: N-linked glycan at N-297 (Kabat EU numbering; residue 295 of SEQ ID NO:1)
notes: Human IgG2 anti-EGFR monoclonal antibody produced in CHO cells at Amgen; unfractionated glycan profile; also called Vectibix; IgG2 (Panitumumab)

Kd [3]: ~7.9 µM
B2: fucose enriched panitumumab (antibody, human IgG2, kappa)
heavy: B1 heavy
light: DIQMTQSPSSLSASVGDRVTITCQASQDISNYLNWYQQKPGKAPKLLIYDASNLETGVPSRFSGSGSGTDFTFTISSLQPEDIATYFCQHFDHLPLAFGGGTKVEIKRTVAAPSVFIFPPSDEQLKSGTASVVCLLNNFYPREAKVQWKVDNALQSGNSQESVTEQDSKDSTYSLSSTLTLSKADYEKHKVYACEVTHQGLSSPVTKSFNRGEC
modifications: N-297 glycan (residue 295 of SEQ ID NO:1) enriched for fucosylated species (flow-through of FcγIIIa affinity column; terminal galactose removed with β-(1-4)-galactosidase)
notes: also called fucosylated panitumumab; afucose-depleted (flow-through) mAb

Kd [4]: ~8 µM
B3: afucose enriched panitumumab (antibody, human IgG2, kappa)
heavy: B1 heavy
light: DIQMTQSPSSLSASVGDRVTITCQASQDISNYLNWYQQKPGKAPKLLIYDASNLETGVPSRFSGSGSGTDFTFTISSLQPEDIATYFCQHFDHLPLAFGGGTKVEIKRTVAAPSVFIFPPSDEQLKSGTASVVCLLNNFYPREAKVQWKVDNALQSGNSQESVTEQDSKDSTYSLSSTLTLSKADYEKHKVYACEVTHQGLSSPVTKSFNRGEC
modifications: N-297 glycan (residue 295 of SEQ ID NO:1) enriched for afucosylated species (Endo-H treatment, eluate of FcγIIIa affinity column; terminal galactose removed with β-(1-4)-galactosidase)
notes: also called afucosylated panitumumab; afucose enriched (eluate) mAb
